Six sequences from the supplement of paper PMC5998384 can be followed below.

In data set [1] the test system is HeLa Kyoto. Kind of data set: solubility in G1/S (NP-40 vs SDS abundance) (log2 ratio); higher = more soluble. To be noted: cell cycle stage: G1/S.
The subject of data set [2] is HeLa Kyoto. Kind of data set: melting temperature (median over replicates), in situ; higher = more thermally stable.
Data set [3] deals with HeLa Kyoto. Kind of data set: solubility change mitosis vs G1/S (difference of NP-40 vs SDS log2 ratios) (log2 ratio difference); higher = more soluble in mitosis.
For data set [4], the system named is HeLa Kyoto. Briefly: thermal stability score vs G1/S (z-score of summed log2 fold changes over temperatures); higher = more thermally stable than in G1/S.
Setting [5] is: cell cycle stage: early G1 (4.5 h after nocodazole release).
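Wherever melting temperature (median over replicates), in situ is given: HeLa Kyoto cells synchronized by double thymidine or nocodazole block, proteins quantified by TMT10plex mass spectrometry, three independent biological replicates.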
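Wherever solubility change mitosis vs G1/S (difference of NP-40 vs SDS log2 ratios) is given: synchronized HeLa Kyoto cells (double thymidine block for G1/S, nocodazole release for mitosis), protein amounts in NP-40 versus SDS lysates quantified by mass spectrometry, three biological replicates.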
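Wherever solubility in G1/S (NP-40 vs SDS abundance) is given: HeLa Kyoto cells arrested at G1/S by double thymidine block, proteins quantified by TMT10plex mass spectrometry in mild NP-40 versus SDS extracts, three biological replicates.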
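Wherever thermal stability score vs G1/S (z-score of summed log2 fold changes over temperatures) is given: synchronized HeLa Kyoto cells, proteins quantified by TMT10plex mass spectrometry, three biological replicates, mitosis taken 0.5 h after nocodazole release, G1/S directly after double thymidine block.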

Consider “MNSAEQTVTWLITLGVLESPKKTISDPEGFLQASLKDGVVLCRLLERLLPGTIEKVYPEPRSESECLSNIREFLRGCGASLRLELLFPPSQPPQHLVTTILLSASTFDANDLYQGQNFNKVLSSLVTLNKVTADIGLGSDSVCARPSSHRIKSFDSLGSQSLHTRTSKLFQGQYRSLDMTDNSNNQLVVRAKFNFQQTNEDELSFSKGDVIHVTRVEEGGWWEGTLNGRTGWFPSNYVREVKASEKPVSPKSGTLKSPPKGFDTTAINKSYYNVVLQNILETENEYSKELQTVLSTYLRPLQTSEKLSSANISYLMGNLEEICSFQQMLVQSLEECTKLPEAQQRVGGCFLNLMPQMKTLYLTYCANHPSAVNVLTEHSEELGEFMETKGASSPGILVLTTGLSKPFMRLDKYPTLLKELERHMEDYHTDRQDIQKSMAAFKNLSAQCQEVRKRKELELQILTEAIRNWEGDDIKTLGNVTYMSQVLIQCAGSEEKNERYLLLFPNVLLMLSASPRMSGFIYQGKLPTTGMTITKLEDSENHRNAFEISGSMIERILVSCNNQQDLQEWVEHLQKQTKVTSVGNPTIKPHSVPSHTLPSHPVTPSSKHADSKPAPLTPAYHTLPHPSHHGTPHTTINWGPLEPPKTPKPWSLSCLRPAPPLRPSAALCYKEDLSKSPKTMKKLLPKRKPERKPSDEEFASRKSTAALEEDAQILKVIEAYCTSAKTRQTLNSTWQGTDLMHNHVLADDDQPSLDSLGRRSSLSRLEPSDLSEDSDYDSIWTAHSYRMGSTSRKSCCSYISHQN [ARHGEF7]”, for which the “solubility in G1/S (log2)” value in the data set with HeLa Kyoto [1] was 0.105. For the same sequence, the melting temperature was found to be 48.5 °C with HeLa Kyoto [2] (cell cycle stage: G1/S) and 49.6 °C in the data set with HeLa Kyoto [2] (cell cycle stage: mitosis). In addition, the “solubility change mitosis (log2)” value with HeLa Kyoto [3] is -0.0942. Besides, the values for the thermal stability score with HeLa Kyoto [4] (setting [5]) and in the data set on HeLa Kyoto [4] (cell cycle stage: mitosis) were 0.815 and 1.6, respectively.
In the case of “MFSFNMFDHPIPRVFQNRFSTQYRCFSVSMLAGPNDRSDVEKGGKIIMPPSALDQLSRLNITYPMLFKLTNKNSDRMTHCGVLEFVADEGICYLPHWMMQNLLLEEGGLVQVESVNLQVATYSKFQPQSPDFLDITNPKAVLENALRNFACLTTGDVIAINYNEKIYELRVMETKPDKAVSIIECDMNVDFDAPLGYKEPERQVQHEESTEGEADHSGYAGELGFRAFSGSGNRLDGKKKGVEPSPSPIKPGDIKRGIPNYEFKLGKITFIRNSRPLVKKVEEDEAGGRFVAFSGEGQSLRKKGRKP [UFD1L]”, the “solubility in G1/S (log2)” value with HeLa Kyoto [1] came to 0.0333. The melting temperature in the data set on HeLa Kyoto [2] (cell cycle stage: G1/S) was 54.2 °C; with HeLa Kyoto [2] (cell cycle stage: mitosis), 54.3 °C. In addition, the “solubility change mitosis (log2)” value in the data set with HeLa Kyoto [3] was -0.123. The thermal stability score with HeLa Kyoto [4] (setting [5]) is 0.171; in the data set on HeLa Kyoto [4] (cell cycle stage: mitosis), -0.639.
For the sequence “MPRKRKCDLRAVRVGLLLGGGGVYGSRFRFTFPGCRALSPWRVRVQRRRCEMSTMFADTLLIVFISVCTALLAEGITWVLVYRTDKYKRLKAEVEKQSKKLEKKKETITESAGRQQKKKIERQEEKLKNNNRDLSMVRMKSMFAIGFCFTALMGMFNSIFDGRVVAKLPFTPLSYIQGLSHRNLLGDDTTDCSFIFLYILCTMSIRQNIQKILGLAPSRAATKQAGGFLGPPPPSGKFS [TMCO1]”, the “solubility in G1/S (log2)” value in the data set with HeLa Kyoto [1] was -0.0501. The melting temperature came to 53.7 °C in the data set with HeLa Kyoto [2] (cell cycle stage: G1/S) and 54.1 °C in the data set on HeLa Kyoto [2] (cell cycle stage: mitosis). Further, in the data set with HeLa Kyoto [3], the “solubility change mitosis (log2)” value turned out to be 0.0683. The thermal stability score in the data set on HeLa Kyoto [4] (setting [5]) is -0.0145; with HeLa Kyoto [4] (cell cycle stage: mitosis) it was -0.0344.
“MSTKNFRVSDGDWICPDKKCGNVNFARRTSCNRCGREKTTEAKMMKAGGTEIGKTLAEKSRGLFSANDWQCKTCSNVNWARRSECNMCNTPKYAKLEERTGYGGGFNERENVEYIEREESDGEYDEFGRKKKKYRGKAVGPASILKEVEDKESEGEEEDEDEDLSKYKLDEDEDEDDADLSKYNLDASEEEDSNKKKSNRRSRSKSRSSHSRSSSRSSSPSSSRSRSRSRSRSSSSSQSRSRSSSRERSRSRGSKSRSSSRSHRGSSSPRKRSYSSSSSSPERNRKRSRSRSSSSGDRKKRRTRSRSPERRHRSSSGSSHSGSRSSSKKK [ZRANB2]”: the “solubility in G1/S (log2)” value in the data set with HeLa Kyoto [1] was -0.0186. In the data set on HeLa Kyoto [2] (cell cycle stage: G1/S), the melting temperature came out at 58 °C. Moreover, the “solubility change mitosis (log2)” value with HeLa Kyoto [3] was -0.011. For the same sequence, the thermal stability score with HeLa Kyoto [4] (setting [5]) is 0.299; in the data set with HeLa Kyoto [4] (cell cycle stage: mitosis), 0.397.
As to “MVMEKPSPLLVGREFVRQYYTLLNKAPEYLHRFYGRNSSYVHGGVDASGKPQEAVYGQNDIHHKVLSLNFSECHTKIRHVDAHATLSDGVVVQVMGLLSNSGQPERKFMQTFVLAPEGSVPNKFYVHNDMFRYEDEVFGDSEPELDEESEDEVEEEQEERQPSPEPVQENANSGYYEAHPVTNGIEEPLEESSHEPEPEPESETKTEELKPQVEEKNLEELEEKSTTPPPAEPVSLPQEPPKAFSWASVTSKNLPPSGTVSSSGIPPHVKAPVSQPRVEAKPEVQSQPPRVREQRPRERPGFPPRGPRPGRGDMEQNDSDNRRIIRYPDSHQLFVGNLPHDIDENELKEFFMSFGNVVELRINTKGVGGKLPNFGFVVFDDSEPVQRILIAKPIMFRGEVRLNVEEKKTRAARERETRGGGDDRRDIRRNDRGPGGPRGIVGGGMMRDRDGRGPPPRGGMAQKLGSGRGTGQMEGRFTGQRR [G3BP2]”, in the data set with HeLa Kyoto [1], the “solubility in G1/S (log2)” value was -0.124. For the same sequence, the figures for the melting temperature with HeLa Kyoto [2] (cell cycle stage: G1/S) and in the data set on HeLa Kyoto [2] (cell cycle stage: mitosis) were 51.7 °C and 50.4 °C, respectively. The “solubility change mitosis (log2)” value with HeLa Kyoto [3] is 0.158. Moreover, the thermal stability score was -0.995 with HeLa Kyoto [4] (setting [5]) and -2.86 in the data set with HeLa Kyoto [4] (cell cycle stage: mitosis).
On to “MQKIKSLMTRQGLKSPQESLSDLGAIESLRVPGKEEFRELREQPSDPQAEQELINSIEQVYFSVDSFDIVKYELEKLPPVLNLQELEAYRDKLKQQQAAVSKKVADLILEKQPAYVKELERVTSLQTGLQLAAVICTNGRRHLNIAKEGFTQASLGLLANQRKRQLLIGLLKSLRTIKTLQRTDVRLSEMLEEEDYPGAIQLCLECQKAASTFKHYSCISELNSKLQDTLEQIEEQLDVALSKICKNFDINHYTKVQQAYRLLGKTQTAMDQLHMHFTQAIHNTVFQVVLGYVELCAGNTDTKFQKLQYKDLCTHVTPDSYIPCLADLCKALWEVMLSYYRTMEWHEKHDNEDTASASEGSNMIGTEETNFDRGYIKKKLEHGLTRIWQDVQLKVKTYLLGTDLSIFKYDDFIFVLDIISRLMQVGEEFCGSKSEVLQESIRKQSVNYFKNYHRTRLDELRMFLENETWELCPVKSNFSILQLHEFKFMEQSRSPSVSPSKQPVSTSSKTVTLFEQYCSGGNPFEIQANHKDEETEDVLASNGYESDEQEKSAYQEYDSDSDVPEELKRDYVDEQTGDGPVKSVSRETLKSRKKSDYSLNKVNAPILTNTTLNVIRLVGKYMQMMNILKPIAFDVIHFMSQLFDYYLYAIYTFFGRNDSLESTGLGLSSSRLRTTLNRIQESLIDLEVSADPTATLTAAEERKEKVPSPHLSHLVVLTSGDTLYGLAERVVATESLVFLAEQFEFLQPHLDAVMPAVKKPFLQQFYSQTVSTASELRKPIYWIVAGKALDYEQMLLLMANVKWDVKEIMSQHNIYVDALLKEFEQFNRRLNEVSKRVRIPLPVSNILWEHCIRLANRTIVEGYANVKKCSNEGRALMQLDFQQFLMKLEKLTDIRPIPDKEFVETYIKAYYLTENDMERWIKEHREYSTKQLTNLVNVCLGSHINKKARQKLLAAIDDIDRPKR [VPS50]”, for which the “solubility in G1/S (log2)” value with HeLa Kyoto [1] is -0.0656. In addition, the melting temperature in the data set with HeLa Kyoto [2] (cell cycle stage: G1/S) turned out to be 50.8 °C; with HeLa Kyoto [2] (cell cycle stage: mitosis), 49.6 °C. Further, the “solubility change mitosis (log2)” value in the data set on HeLa Kyoto [3] is -0.108. Also, the results for the thermal stability score with HeLa Kyoto [4] (setting [5]) and in the data set with HeLa Kyoto [4] (cell cycle stage: mitosis) were 0.281 and 0.511, respectively.
